The source of these data is patent publication US20160031958A1 (OREGON HEALTH AND SCIENCE UNIVERSITY, published 2016).

For one assay, the target named is T1, HA-REST S861A/S864A (human, UniProt Q13127 1-1097).
T1 construct: mature; Expressed in HEK293T cells and tested in cell extracts; also called mutant S861A/S864A REST; not shown: HA tag
T1 sequence (looked up): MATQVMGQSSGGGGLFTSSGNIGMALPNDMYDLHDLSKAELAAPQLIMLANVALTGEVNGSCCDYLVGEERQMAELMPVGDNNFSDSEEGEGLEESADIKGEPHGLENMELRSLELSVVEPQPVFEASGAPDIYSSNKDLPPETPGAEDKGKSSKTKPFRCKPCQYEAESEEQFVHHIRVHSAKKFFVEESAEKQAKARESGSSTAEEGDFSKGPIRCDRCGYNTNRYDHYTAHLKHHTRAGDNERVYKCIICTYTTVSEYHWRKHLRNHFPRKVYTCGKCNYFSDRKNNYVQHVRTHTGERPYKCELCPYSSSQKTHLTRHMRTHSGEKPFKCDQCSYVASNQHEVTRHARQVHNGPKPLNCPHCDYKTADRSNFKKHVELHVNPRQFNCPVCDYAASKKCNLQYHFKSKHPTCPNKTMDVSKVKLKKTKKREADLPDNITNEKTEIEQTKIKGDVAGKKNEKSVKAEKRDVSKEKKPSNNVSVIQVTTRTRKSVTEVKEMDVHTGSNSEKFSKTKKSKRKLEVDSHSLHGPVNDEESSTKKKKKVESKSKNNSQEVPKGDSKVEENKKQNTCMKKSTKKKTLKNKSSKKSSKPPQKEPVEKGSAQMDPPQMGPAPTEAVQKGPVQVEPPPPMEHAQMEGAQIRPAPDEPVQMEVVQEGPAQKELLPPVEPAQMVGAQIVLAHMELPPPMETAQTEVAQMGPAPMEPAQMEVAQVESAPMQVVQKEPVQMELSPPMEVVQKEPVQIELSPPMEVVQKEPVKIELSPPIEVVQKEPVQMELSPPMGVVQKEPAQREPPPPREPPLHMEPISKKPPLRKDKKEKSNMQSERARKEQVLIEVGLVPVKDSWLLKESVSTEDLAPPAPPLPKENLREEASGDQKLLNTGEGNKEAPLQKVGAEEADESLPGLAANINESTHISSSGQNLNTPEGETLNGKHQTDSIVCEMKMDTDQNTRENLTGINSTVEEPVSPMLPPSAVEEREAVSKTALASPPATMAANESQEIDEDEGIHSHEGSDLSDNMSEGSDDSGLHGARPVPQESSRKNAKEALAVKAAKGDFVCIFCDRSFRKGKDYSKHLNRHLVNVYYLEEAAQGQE
Nature of the assay: FLAG immunoprecipitation from transfected HEK293T cells, Western blot. From the text: CTDSP1 was first identified as a nuclear phosphatase targeting the C-terminus of RNA polymerase II (R HR et al, BMB Rep 47, 192-196 (2014); Feng Y et al, Biochem Biophys Res Commun 397, 355-360 (2010); and Zhang Y et al, Mol Cell 24, 759-770 (2006); all of which are incorporated by reference herein). Subsequently it was implicated in REST repression of neuronal gene expression in P19 embryonal carcinoma cells that have the capacity to differentiate into neurons (Visvanathan J et al, Genes Dev 21, 744-749 (2007); incorporated by reference herein). […] REST was detected in FLAG-immunocomplexes only when the site was unmutated or double-substituted with glutamate, a phosphorylation-mimic.
Whole cell lysates were prepared and immunoprecipitated following the procedures in Ballas N et al, 2001 supra and Nesti E et al, Mol Biol Cell 15, 4073-4088 (2004); incorporated by reference herein. Western blots were performed by standard procedures using antibodies described below and analyzed using anti IgG conjugated to infrared dyes (ThermoFisher) on an Odyssey® infrared fluorescence imager (LiCor). […] Infrared fluorescence was detected on the Odyssey® imager (LiCor) in the 700 nm channel. […]

For assay [1], the target named is T2, Pin1 (peptidyl-prolyl cis/trans isomerase), human (human, UniProt Q13526 1-163).
T2 construct: also called Human Pin1
The assay can be described thus: co-immunoprecipitation from transfected HEK293T cells, Western blot. The method, then: FIG. 4A is an image of a Western blot of co-immunoprecipitation analysis showing Pin1 is present in REST (810-910) immunoprecipitates in a phospho-dependent manner. HEK293T cells were transfected with Pin1 cDNA and either WT or mutant (S861A/S864A) FLAG-REST (810-910) or FLAG-control (595-694) peptide cDNAs (FIG. 3). After 48 hours, the cells were extracted and immunoprecipitated. Western blots were probed with the indicated antibodies.
To confirm this, HEK cells were transfected with FLAG-Pin1 and cDNAs encoding the 100 amino acid peptides described above containing an S861/S864 or an S861A/S864A sites. Pin1 was present in immunocomplexes of unmutated REST (810-910) reporter peptides, but not phosphorylation-resistant mutant S861A/S864A peptides (FIG. 4A). […]
Whole cell lysates were prepared and immunoprecipitated following the procedures in Ballas N et al, 2001 supra and Nesti E et al, Mol Biol Cell 15, 4073-4088 (2004); incorporated by reference herein. Western blots were performed by standard procedures using antibodies described below and analyzed using anti IgG conjugated to infrared dyes (ThermoFisher) on an Odyssey® infrared fluorescence imager (LiCor). […]
On the technique in general: Immunoblotting shows a protein as a band on a membrane.

The target of assay [2] is T3, HA-REST E1009A/S1013A/S1024A/S1027A/S1030A (human, UniProt Q13127 1-1097).
T3 construct: mature; Expressed in HEK293T cells and tested in cell extracts; also called E1009A/S1013/24/27/30A; REST degron mutant; not shown: HA tag
T3 sequence (looked up): T1 sequence (looked up) with A861S, A864S, E1009A, S1013A, S1024A, S1027A, S1030A
Nature of the assay: GST pull-down on glutathione agarose from co-transfected HEK293T cells, Western blot. The method, then:
HA-REST cDNAs were transfected into HEK293T cells along with GST-βTrCP, and FLAG-Dominant Negative Cull to stabilize REST. Cell extracts were collected on glutathione agarose and probed with anti-HA or anti-GST antibodies.
Whole cell lysates were prepared and immunoprecipitated following the procedures in Ballas N et al, 2001 supra and Nesti E et al, Mol Biol Cell 15, 4073-4088 (2004); incorporated by reference herein. Western blots were performed by standard procedures using antibodies described below and analyzed using anti IgG conjugated to infrared dyes (ThermoFisher) on an Odyssey® infrared fluorescence imager (LiCor). For detecting phosphorylated REST at S861/S864, cell extracts were prepared lacking phosphatase inhibitors. For phosphatase treatment, 75 μg of total protein was treated with 600 U lambda phosphatase (New England Biolabs) or with buffer alone at 30° C. for 1 h, according to the manufacturer's protocol. Thirty-five μg of treated protein were resolved by SDS-PAGE and Western blotted with the non-phospho-depleted anti REST phospho antibody (rabbit #101) at 1:500 in 3% BSA/1×TBS-0.5% Tween-20® overnight at 4° C., followed by anti-rabbit IgG-IR680 conjugated secondary antibody (Thermo Fisher) at 1:15000 in 5% milk/TBS-Tween for 1 hour at room temp. Infrared fluorescence was detected on the Odyssey® imager (LiCor) in the 700 nm channel. […]

Positions count from the first letter of the chain named. Names and notes keep the numbering of the source.

T2 sequence (Q13526 whole entry): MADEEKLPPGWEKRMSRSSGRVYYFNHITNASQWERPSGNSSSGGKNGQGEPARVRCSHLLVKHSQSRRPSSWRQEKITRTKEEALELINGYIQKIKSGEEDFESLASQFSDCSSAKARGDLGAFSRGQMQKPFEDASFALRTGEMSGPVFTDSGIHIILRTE

B1: FLAG-CTDSP1 (enzyme, not shown: small tags and cut ends)
chain: MDSSAVITQISKEEARGPLRGKGDQKSAASQKPRSRGILHSLFCCVCRDDGEALPAHSGAPLLVEENGAIPKQTPVQYLLPEAKAQDSDKICVVIDLDETLVHSSFKPVNNADFIIPVEIDGVVHQVYVLKRPHVDEFLQRMGELFECVLFTASLAKYADPVADLLDKWGAFRARLFRESCVFHRGNYVKDLSRLGRDLRRVLILDNSPASYVFHPDNAVPVASWFDNMSDTELHDLLPFFEQLSRVDDVYSVLRQPRPGS
notes: also called C-terminal domain small phosphatase
In the case of B1, the binding result with HA-REST S861A/S864A is “no binding”.

B2: FLAG-REST (810-910)-GFP reporter peptide S861A/S864A (peptide)
chain: ISKKPPLRKDKKEKSNMQSERARKEQVLIEVGLVPVKDSWLLKESVSTEDLAPPAPPLPKENLREEASGDQKLLNTGEGNKEAPLQKVGAEEADESLPGLA
notes: also called mutant (S861A/S864A) FLAG-REST (810-910); phosphorylation-resistant mutant S861A/S864A peptide; not shown: N-terminal FLAG tag with linker; C-terminal eGFP tag (pEGFP-N1)
On to B2, for which the binding result in assay [1] is “no binding”.

B3: GST-βTrCP (other, UniProt Q9Y297 1-605, looked up)
chain: MDPAEAVLQEKALKFMCSMPRSLWLGCSSLADSMPSLRCLYNPGTGALTAFQNSSEREDCNNGEPPRKIIPEKNSLRQTYNSCARLCLNQETVCLASTAMKTENCVAKTKLANGTSSMIVPKQRKLSASYEKEKELCVKYFEQWSESDQVEFVEHLISQMCHYQHGHINSYLKPMLQRDFITALPARGLDHIAENILSYLDAKSLCAAELVCKEWYRVTSDGMLWKKLIERMVRTDSLWRGLAERRGWGQYLFKNKPPDGNAPPNSFYRALYPKIIQDIETIESNWRCGRHSLQRIHCRSETSKGVYCLQYDDQKIVSGLRDNTIKIWDKNTLECKRILTGHTGSVLCLQYDERVIITGSSDSTVRVWDVNTGEMLNTLIHHCEAVLHLRFNNGMMVTCSKDRSIAVWDMASPTDITLRRVLVGHRAAVNVVDFDDKYIVSASGDRTIKVWNTSTCEFVRTLNGHKRGIACLQYRDRLVVSGSSDNTIRLWDIECGACLRVLEGHEELVRCIRFDNKRIVSGAYDGKIKVWDLVAALDPRAPAGTLCLRTLVEHSGRVFRLQFDEFQIVSSSHDDTILIWDFLNDPAAQAEPPRSPSRTYTYISR
notes: also called βTrCP-GST fusion; bTrCP; not shown: GST
With B3, the binding result in assay [2] is reported as “no binding”.
